Experimental data as given in US20030092616A1, “STAT6 activation gene” (priority 2001, published 2003).

B1: 115 (nucleic acid, listed as Homo sapiens)
chain: GTTTTCCGCCGTCCGTCCGGGCGGGCGGGCGCAGAGTCCCGCGGGCGGCGCGGAAGCGGCGGCGGCGCGGCCGGGGCAGCCATGTCGCCATTGTCTGCGGCGCGGGCGGCCCTGCGGGTCTACGCGGTAGGCGCCGCGGTGATCCTGGCGCAGCTGCTGCGGCGCTGCCGCGGGGGCTTCCTGGAGCCAGTTTTCCCCCCACGACCTGACCGTGTCGCTATAGTGACGGGAGGGACAGATGGCATTGGCTATTCTACAGCGAAGCATCTGGCGAGACTTGGCATGCATGTTATCATAGCTGGAAATAATGACAGCAAAGCCAAACAAGTTGTAAGCAAAATAAAAGAAGAAACCTTGAACGACAAAGTGGAATTTTTATACTGTGACTTGGCTTCCATGACTTCCATCCGGCAGTTTGTGCAGAAGTTCAAGATGAAGAAGATTCCTCTCCATGTCCTGATCAACAATGCTGGGGTGATGATGGTCCCTCAGAGGAAAACCAGAGATGGATTCGAAGAACATTTCGGCCTGAACTACCTAGGGCACTTCCTGCTGACCAACCTTCTCTTGGATACGCTGAAAGAGTCTGGGTCCCCTGGCCACAGTGCGAGGGTGGTCACCGTCTCCTCTGCCACCCATTACGTCGCTGAGCTGAACATGGATGACCTTCAGAGCAGTGCCTGCTACTCACCCCACGCAGCCTACGCCCAGAGCAAGCTGGCCCTTGTCCTGTTCACCTACCACCTCCAGCGGCTGCTGGCGGCTGAGGGAAGCCACGTGACCGCCAACGTGGTGGACCCCGGGGTGGTCAACACGGACCTCTACAAGCACGTGTTCTGGGCCACCCGTCTGGCGAAGAAGCTTCTCGGCTGGTTGCTTTTCAAGACCCCCGATGAAGGAGCGTGGACTTCCATCTACGCAGCAGTCACCCCAGAGCTGGAAGGAGTTGGTGGCCGTTACCTATACAACGAGAAAGAGACCAAGTCCCTCCACGTCACCTACAACCAGAAACTGCAGCAGCAGCTGTGGTCTAAGAGTTGTGAGATGACTGGGGTCCTTGATGTGACCCTGTGATATCCTGTCTCAGGATAGCTGCTGCCCCAAGAAACACATTGCACCTGCCAATAGCTTGTGGGTCTGTGAAGACTGCGGTGTTTGAGTTTCTCACACCCACCTGCCCACAGGGCTCTGTCCTCTAGTTTTGAGACAGCTGCCTCAACCTCTGCAGAACTTCAAGAAGCCAAATAAACATTTTGGAGGATAATCACCCCAAGTGGTCTTCAACCATAAACTTTGTGATTCCAAAGTGCCCAGTTGTCACAGGTGCCATAAATAATTACATTTTCCAACAT
modifications: CDS (82)..(1071)
B2: 345 (nucleic acid, listed as Homo sapiens)
chain: CCAGCCAACGAGCGGAAAATGGCAGACAATTTTTCGCTCCATGATGCGTTATCTGGGTCTGGAAACCCAAACCCTCAAGGATGGCCTGGCGCATGGGGGAACCAGCCTGCTGGGGCAGGGGGCTACCCAGGGGCTTCCTATCCTGGGGCCTACCCCGGGCAGGCACCCCCAGGGGCTTATCCTGGACAGGCACCTCCAGGCGCCTACCATGGAGCACCTGGAGCTTATCCCGGAGCACCTGCACCTGGAGTCTACCCAGGGCCACCCAGCGGCCCTGGGGCCTACCCATCTTCTGGACAGCCAAGTGCCCCCGGAGCCTACCCTGCCACTGGCCCCTATGGCGCCCCTGCTGGGCCACTGATTGTGCCTTATAACCTGCCTTTGCCTGGGGGAGTGGTGCCTCGCATGCTGATAACAATTCTGGGCACGGTGAAGCCCAATGCAAACAGAATTGCTTTAGATTTCCAAAGAGGGAATGATGTTGCCTTCCACTTTAACCCACGCTTCAATGAGAACAACAGGAGAGTCATTGTTTGCAATACAAAGCTGGATAATAACTGGGGAAGGGAAGAAAGACAGTCGGTTTTCCCATTTGAAAGTGGGAAACCATTCAAAATACAAGTACTGGTTGAACCTGACCACTTCAAGGTTGCAGTGAATGATGCTCACTTGTTGCAGTACAATCATCGGGTTAAAAAACTCAATGAAATCAGCAAACTGGGAATTTCTGGTGACATAGACCTCACCAGTGCTTCATATACCATGATATAATCTGAAAGGGGCAGATTAAAAAAAAAAAAAAAGAATCTAAACCTTACATGTGTAAAGGTTTCATGTTCACTGTGAGTGAAAATTTTTACATTCATCAATATCCCTCTTGTAAGTCATCTACTTAATAAATATTACAGTGAAAG
modifications: CDS (19)..(768)
B3: 349 (nucleic acid, listed as Homo sapiens)
chain: CCCCCCCGAGCGCCGCTCCGGCTGCACCGCGCTCGCTCCGAGTTTCAGGCTCGTGCTAAGCTAGCGCCGTCGTCGTCTCCCTTCAGTCGCCATCATGATTATCTACCGGGACCTCATCAGCCACGATGAGATGTTCTCCGACATCTACAAGATCCGGGAGATCGCGGACGGGTTGTGCCTGGAGGTGGAGGGGAAGATGGTCAGTAGGACAGAAGGTAACATTGATGACTCGCTCATTGGTGGAAATGCCTCCGCTGAAGGCCCCGAGGGCGAAGGTACCGAAAGCACAGTAATCACTGGTGTCGATATTGTCATGAACCATCACCTGCAGGAAACAAGTTTCACAAAAGAAGCCTACAAGAAGTACATCAAAGATTACATGAAATCAATCAAAGGGAAACTTGAAGAACAGAGACCAGAAAGAGTAAAACCTTTTATGACAGGGGCTGCAGAACAAATCAAGCACATCCTTGCTAATTTCAAAAACTACCAGTTCTTTATTGGTGAAAACATGAATCCAGATGGCATGGTTGCTCTATTGGACTACCGTGAGGATGGTGTGACCCCATATATGATTTTCTTTAAGGATGGTTTAGAAATGGAAAAATGTTAACAAATGTGGCAATTATTTTGGATCTATCACCTGTCATCATAACTGGCTTCTGCTTGTCATCCACACAACACCAGGACTTAAGACAAATGGGACTGATGTCATCTTGAGCTCTTCATTTATTTTGACTGTGATTTATTTGGAGTGGAGGCATTGTTTTTAAGAAAAACATGTCATGTAGGTTGTCTAAAAATAAAATGCATTTAAACTCATTTGAGAG
modifications: CDS (95)..(610)
B4: 327 (nucleic acid, listed as Homo sapiens)
chain: TGTCGACGCCGCTGCCACCGCCTGCCTGAGAGAAGTCGTCGCGGCCGACCCCGTCGCCTCCGCCGGCTACCATGTCCGCCCAGGCGCAGATGCGGGCCCTGCTGGACCAGCTCATGGGCACGGCTCGGGACGGAGACGAAACCAGACAAAGGGTCAAGTTTACAGATGACCGTGTCTGCAAGAGTCACCTTCTGGACTGCTGCCCCCATGACATCCTGGCTGGGACGCGCATGGATTTAGGAGAATGTACCAAAATCCACGACTTGGCCCTCCGAGCAGATTATGAGATTGCAAGTAAAGAAAGAGACCTGTTTTTTGAATTAGATGCAATGGATCACTTGGAGTCCTTTATTGCTGAATGTGATCGGAGAACTGAGCTCGCCAAGAAGCGGCTGGCAGAAACACAGGAGGAAATCAGTGCGGAAGTTTCTGCAAAGGCAGAAAAAGTACATGAGTTAAATGAAGAAATAGGAAAACTCCTTGCTAAAGCCGAACAGCTAGGGGCTGAAGGTAATGTGGATGAATCCCAGAAGATTCTTATGGAAGTGGAAAAAGTTCGTGCGAAGAAAAAAGAAGCTGAGGAAGAATACAGAAATTCCATGCCTGCATCCAGTTTTCAGCAGCAAAAGCTGCGTGTCTGCGAGGTCTGTTCAGCCTACCTTGGTCTCCATGACAATGACCGTCGCCTGGCAGACCACTTCGGTGGCAAGTTACACTTGGGGTTCATTCAGATCCGAGAGAAGCTTGATCAGTTGAGGAAAACTGTCGCTGAAAAGCAGGAGAAGAGAAATCAGGATCGCTTGAGGAGGAGAGAGGAGAGGGAACGGGAGGAGCGTCTGAGCAGGAGGTCGGGATCAAGAACCAGAGATCGCAGGAGGTCACGCTCCCGGGATCGGCGTCGGAGGCGGTCAAGATCTACCTCCCGAGAGCGACGGAAATTGTCCCGGTCCCGGTCCCGAGATAGACATCGGCGCCACCGCAGCCGTTCCCGGAGCCACAGCCGGGGACATCGTCGGGCTTCCCGGGACCGAAGTGCGAAATACAAGTAACTACTCTGACTCCTTCGGTAGCTGCAACCAGGGGTTCTCCAGAGAGCGGGCATCCAGAGAGGAGTCCTGGGAGAGCGGGCGGAGCGAGCGAGGGCCCCCGGACTGGAGGCTTGAGAGCTCCAACGGGAAGATGGCTTCACGGAGGTCAGAAGAGAAGGAGGCCGGCGAGATCTGAACCCGTCTCCCGGGTGCTGTAAATAGTCTGATAAACGTTCACACAGTCTAAAATTACCCTTTATATTTGCTGAATACAACTCATCTTTTGTAGTTTAAAATTTCTATTGTTTTGGAGCTAGCTGTGAGTTTCTAGAAGTGTACAGAGTTGCTCCTGTGTTCCCGGGTCATGTTGAGTAGGAATAAATAAATCTGATGCTGCCTCCTGAGGCTGCGGGGGGTTTCTGC
modifications: CDS (72)..(1046)
B5: 6 (nucleic acid, listed as Homo sapiens)
chain: TAAAAGAAGAGAAGAGGCTAAAGAAGAAAAGAAGAAAATCAACTTCTTCTTCAAGTGTTTCTTCTGCTGATGAATCAGTGTCTTCATCATCATCCTCTTCCTCTTCTGGTCACAAAAGGCATAAGAAACATAAGAGGAACCGTTCAGAGTCTTCTCGCAGTTCCAGAAGGCATTCATCTAGGGCATCCTCAAATCAGATAGATCAGAATAGGAAAGATGAGTGCTACCCAGTTCCAGCTAATACTTCAGCATCTTTTCTTAACCATAAACAAGAAGTGGAGAAACTACTGGGGAAGCAGGATAGGTTACAGTATGAAAAGACACAGATAAAAGAGAAAGATAGATGCCCTCTCTCTTCATCTTCACTTGAAATACCGGATGATTTTGGAGGTAGGTCTGAAGATCCAAGAGATTTTTATAACAGCTATAAAACCCAAGCAGGTAGTAGCAAAACAGAAAAGCCATATAAATCAGAAAGACATTTTTCCAGTAGAAGAAATTCCTCAGATTCCTTCTGTAGGAATTCAGAGGACAAGATTTATGGTTATAGGAGATTTGAAAAGGATATAGAGGGAAGAAAAGAGCACTATAGAAGGTGGGAACCAGGTTCTGTGAGGCATTCTACCTCACCAGCAAGCTCAGAATACTCTTGGAAGTCAGTTGAGAAATACAAAAAATACGCTCACTCTGGATCACGTGATTTCAGTAGACATGAGCAAAGATACCGTTTAAATACAAATCAAGGAGAATATGAAAGAGAGGACAATTATGGGGAGGATATCAAAACAGAGGTTCCAGAAGAAGATGCACTAAGTAGCAAAGAACACTCAGAAAGCAGTGTTAAGAAAAATTTACCTCAGAATTTACTGAATATATTTAATCAGATAGCTGAATTTGAAAAAGAAAAAGGAAATAAGTCAAAAAATTAATACACCAAGGATATCGGCACCATTACACAAAATGCCATTAAGTGAAGTTTTTGGTTGTATTAGTCATAACAGTTGAGTGCAGAAATCTCTGCTTCTAAAATTATTTGTAGAGATTACAGGAAACAAATGCTTTTAAGTAAGTTTTTCTCAAATTTTGTTTCAGTTCTAGGTCCCTTGTCACAGCTTGGTTTTTAGACTTTTTATGTATATGTTTATGTACAGTATATTACTCTTGACAGTTTGAATTTCTTCACCTAAAGATAATTCTCTGAAAGTACTGTTTCTTCATTCTATTGCGGTATATGAGAATTCCTGGGTGCATCTTATTCTGCTGTTTGAGAGAAAAATTTGTGCATTGAACACTTGGATCATTTTTATAAAAATTAATTTCATTTTCTTTTCTGTTAAATTAAAAATCGTCAGCTTTTGAAAGAT
modifications: CDS (379)..(567)

The molecules below were run on STAT6 (assay: Screening of full-length cDNA clones for promotion of STAT6 activation (luciferase reporter N4×8-luc)). Details: NIH3T3 cells cotransfected with N4×8-luc reporter and cDNA plasmid; 48 h culture, then mouse IL-4 0.5 ng/ml for 6 h.
Format: cell-based
In short: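 Promotion of STAT6 activation scored as increase in luciferase signal over null-vector control cells. NIH3T3 cells carried N4×8-luc (100 ng) plus cDNA clone; after 48 h culture, 6 h stimulation with 0.5 ng/ml (final) mouse IL-4 preceded reading.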

Question: Which “Activity = (luciferase activity of the gene of each SEQ ID NO:)/(luciferase activity of pME18S-FL3)” value does the source give for B1 here?
Answer: 8.6

Question: B2 was tested. Which “Activity = (luciferase activity of the gene of each SEQ ID NO:)/(luciferase activity of pME18S-FL3)” value did it give?
Answer: 3.7

Question: How did the “Activity = (luciferase activity of the gene of each SEQ ID NO:)/(luciferase activity of pME18S-FL3)” value turn out when B3 was run?
Answer: 24.3

Question: B4 was tested. Which “Activity = (luciferase activity of the gene of each SEQ ID NO:)/(luciferase activity of pME18S-FL3)” value did it give?
Answer: 5.3

Question: For B5, which “Activity = (luciferase activity of the gene of each SEQ ID NO:)/(luciferase activity of pME18S-FL3)” value is on record?
Answer: 127.5
